B1: F1*; the commonest letter at each place (parent)
chain: GAGACCGCAACTGAAAAGTTGTTATCACTTGTCGTAAGACACTTTGGATGGGTTGAAGTTCTGCACGTAGAAGCAAAAGGC

Variants of: B1
Assay: fraction ligated after 30 min (ligated reads / total reads); higher = more ligase activity
Settings: with F1*sub RNA substrate (template-directed ligation), 42 °C
Method in brief: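 Ribozyme variants were transcribed with T7 from PCR-amplified oligo-pool templates and gel-purified. Ligated and unligated bands, separated on gel, were reverse transcribed with barcoded primers and sequenced on a MiSeq, with core bases filtered at quality ≥20. Fraction ligated per variant was computed as ligated reads divided by total reads.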

First: C33T A39C
Second: C42G T43G
The fraction ligated of the first is lower: 0.804 for the first, 0.827 for the second.

Going from T25C A39C to G31A G55T, the fraction ligated rises from 0.741 to 0.767.

Compared with T30A G55A, T44G G47T is lower in fraction ligated: 0.816 for the first, 0.0521 for the second.

First: C33A A39G
Second: T30C T32A
The fraction ligated of the first is higher: 0.84 for the first, 0.817 for the second.

First: T32A C42A
Second: G46T T49A
The fraction ligated of the first is higher: 0.843 for the first, 0.192 for the second.

Compared with C40T G55T, A37C T49A is lower in fraction ligated: 0.816 for the first, 0.778 for the second.

Going from A24G G46T to C26G G46C, the fraction ligated rises from 0.621 to 0.719.

Going from C28T G38A to T29A T43C, the fraction ligated falls from 0.811 to 0.804.

Compared with T29A T43G, T25G T45A is lower in fraction ligated: 0.85 for the first, 0.0602 for the second.

Going from A36G T45C to T32A A57C, the fraction ligated rises from 0.614 to 0.821.

First: G34C A56C
Second: T32A C40T
The fraction ligated of the first is lower: 0.779 for the first, 0.806 for the second.

First: A24C G55A
Second: A24C G55T
The fraction ligated of the first is higher: 0.649 for the first, 0.0793 for the second.

Going from A37G A48C to C33G G47C, the fraction ligated falls from 0.763 to 0.108.

Compared with T32G T35G, T44A G50A is lower in fraction ligated: 0.831 for the first, 0.643 for the second.

Going from C40G T43G to T25A G47T, the fraction ligated falls from 0.819 to 0.253.

Going from C33A C42A to C26A C33T, the fraction ligated falls from 0.879 to 0.829.

Compared with G34C, T43G G47A is lower in fraction ligated: 0.832 for the first, 0.802 for the second.

Going from A39C G50C to T23G G31C, the fraction ligated rises from 0.123 to 0.849.

First: A27T A39G
Second: T44C T49C
The fraction ligated of the first is higher: 0.84 for the first, 0.494 for the second.

First: C28A A37C
Second: G31A A41C
The fraction ligated of the first is higher: 0.779 for the first, 0.74 for the second.

First: T43C T45G
Second: A39C G46C
The fraction ligated of the first is lower: 0.257 for the first, 0.764 for the second.

Compared with A24T A56G, C28T T29C is higher in fraction ligated: 0.0306 for the first, 0.789 for the second.

Going from T30A C42T to A24C T45C, the fraction ligated falls from 0.852 to 0.0358.

Going from G31T A41T to T53C, the fraction ligated rises from 0.772 to 0.849.

Compared with T23G C26A, T25C T43A is lower in fraction ligated: 0.789 for the first, 0.655 for the second.

Compared with A39G A56G, C26T A27T is higher in fraction ligated: 0.792 for the first, 0.808 for the second.

Going from G31T C42A to A24G A27T, the fraction ligated falls from 0.809 to 0.126.

First: T45A T49G
Second: T25A A27C
The fraction ligated of the first is lower: 0.0993 for the first, 0.266 for the second.

First: A24C T49G
Second: T44G G46A
The fraction ligated of the first is lower: 0.806 for the first, 0.818 for the second.

Going from T44G G46C to A48T G55T, the fraction ligated falls from 0.806 to 0.17.

Compared with T25G G47T, G50C is higher in fraction ligated: 0.102 for the first, 0.424 for the second.

Compared with G38T A39G, C33G G38T is higher in fraction ligated: 0.798 for the first, 0.837 for the second.

Going from A39C C40A to A39C T45A, the fraction ligated falls from 0.797 to 0.778.

Going from T25G C42A to A37G T45G, the fraction ligated falls from 0.737 to 0.407.

Going from T25G G34C to C42A T43A, the fraction ligated rises from 0.737 to 0.82.

First: A24G A41T
Second: C26T C28G
The fraction ligated of the first is lower: 0.701 for the first, 0.768 for the second.

Compared with T32G A56T, T25C T49G is lower in fraction ligated: 0.785 for the first, 0.777 for the second.

Going from A27G G46A to T23C A39C, the fraction ligated falls from 0.83 to 0.788.

First: A36C A37T
Second: C40G G47C
The fraction ligated of the first is higher: 0.837 for the first, 0.147 for the second.

First: T45G A57T
Second: T23C T29G
The fraction ligated of the first is higher: 0.8 for the first, 0.766 for the second.

Compared with T29A A56C, T29G A56T is lower in fraction ligated: 0.799 for the first, 0.793 for the second.

Compared with A24C A37G, G31A G38T is higher in fraction ligated: 0.626 for the first, 0.798 for the second.

Compared with A37C C40A, T32A T35C is higher in fraction ligated: 0.82 for the first, 0.829 for the second.

First: T30C A56C
Second: G31T T45A
The fraction ligated of the first is higher: 0.763 for the first, 0.387 for the second.

Compared with G31T T45G, C28A G31A is higher in fraction ligated: 0.0586 for the first, 0.84 for the second.

Compared with A41C T49G, A37G A39C is higher in fraction ligated: 0.209 for the first, 0.776 for the second.

First: G38C G55T
Second: A39G G55T
The fraction ligated of the first is lower: 0.768 for the first, 0.819 for the second.

First: T43G A56T
Second: A24G G47T
The fraction ligated of the first is higher: 0.764 for the first, 0.0352 for the second.

Compared with G38C A48C, T29G A36G is higher in fraction ligated: 0.269 for the first, 0.823 for the second.

First: G47T G50T
Second: G47T G50C
The fraction ligated of the first is higher: 0.108 for the first, 0.048 for the second.

Going from C40G G55T to C26G G47T, the fraction ligated falls from 0.794 to 0.159.

Going from T32A A41G to T23C C42A, the fraction ligated falls from 0.808 to 0.762.

Compared with T35C C40A, T35A T44C is lower in fraction ligated: 0.84 for the first, 0.826 for the second.

Going from C40A A56G to C40A A56C, the fraction ligated falls from 0.785 to 0.711.

Going from A41G G50T to C40T A48T, the fraction ligated rises from 0.609 to 0.798.

First: G46C G47C
Second: G34A C40G
The fraction ligated of the first is lower: 0.0992 for the first, 0.833 for the second.

Going from T30C C33T to A24G G34A, the fraction ligated falls from 0.84 to 0.763.

Compared with A39T G55C, C26T G38A is higher in fraction ligated: 0.738 for the first, 0.823 for the second.

First: A39T A56C
Second: A37T A56G
The fraction ligated of the first is lower: 0.761 for the first, 0.807 for the second.

First: A24C C28A
Second: A24C C28T
The fraction ligated of the first is lower: 0.727 for the first, 0.786 for the second.

Going from A24T G50A to A37T T43C, the fraction ligated rises from 0.265 to 0.806.

Compared with A37T T43G, A24C A36C is lower in fraction ligated: 0.804 for the first, 0.763 for the second.

Going from T49A G55T to A24G T25C, the fraction ligated rises from 0.24 to 0.765.

Compared with G46C G50C, C40A G46A is higher in fraction ligated: 0.0426 for the first, 0.819 for the second.

First: A56T A57T
Second: C26T C40T
The fraction ligated of the first is lower: 0.454 for the first, 0.833 for the second.

Compared with G55T A56T A57C, A24T A37C is higher in fraction ligated: 0.00568 for the first, 0.77 for the second.

Compared with A39C G55C, T25G T44A is higher in fraction ligated: 0.695 for the first, 0.737 for the second.

First: T25A A37G
Second: G31T A39G
The fraction ligated of the first is higher: 0.772 for the first, 0.754 for the second.

Compared with T45G A56T, G38A G55C is lower in fraction ligated: 0.79 for the first, 0.781 for the second.

First: T45G G47A
Second: T35A A36T
The fraction ligated of the first is lower: 0.781 for the first, 0.85 for the second.

Compared with G38C G50A, G38C G50T is higher in fraction ligated: 0.101 for the first, 0.314 for the second.

First: G31T C40G
Second: C33T T45G
The fraction ligated of the first is higher: 0.83 for the first, 0.103 for the second.

Compared with A27T T32A, T23A G38T is lower in fraction ligated: 0.874 for the first, 0.795 for the second.

Compared with A36C, A24C C33T is lower in fraction ligated: 0.833 for the first, 0.697 for the second.

Compared with G46C G55T, C33A is higher in fraction ligated: 0.674 for the first, 0.869 for the second.

Compared with T43A T49G, T25C C33A is lower in fraction ligated: 0.797 for the first, 0.77 for the second.

Going from T23C C28A to A27C T45G, the fraction ligated falls from 0.73 to 0.116.

Going from C42A T44G to G34C G46C, the fraction ligated falls from 0.805 to 0.757.

Compared with T29C T44G, A39T A57G is higher in fraction ligated: 0.848 for the first, 0.869 for the second.

Compared with T30G C40A, C26A A48T is lower in fraction ligated: 0.854 for the first, 0.00798 for the second.

Compared with T29C C42A, A39G G50C is lower in fraction ligated: 0.85 for the first, 0.507 for the second.

First: T30A A39G
Second: T23C A24G
The fraction ligated of the first is higher: 0.805 for the first, 0.794 for the second.

First: G34C T35G
Second: T43C A48G
The fraction ligated of the first is higher: 0.829 for the first, 0.764 for the second.

G31A T45A was tested, and the fraction ligated was 0.395.
